{"source": "paper PMC11032491", "about": "“A conserved strategy to attack collagen: The activator domain in bacterial collagenases unwinds triple-helical collagen” (Proceedings of the National Academy of Sciences of the …, 2024)", "molecules": {"B1": {"name": "ColG-AD (Y119-S392) (domain or fragment)", "chain": "YDFEYLNGLSYTELTNLIKNIKWNQINGLFNYSTGSQKFFGDKNRVQAIINALQESGRTYTANDMKGIETFTEVLRAGFYLGYYNDGLSYLNDRNFQDKCIPAMIAIQKNPNFKLGTAVQDEVITSLGKLIGNASANAEVVNNCVPVLKQFRENLNQYAPDYVKGTAVNELIKGIEFDFSGAAYEKDVKTMPWYGKIDPFINELKALGLYGNITSATEWASDVGIYYLSKFGLYSTNRNDIVQSLEKAVDMYKYGKIAFVAMERITWDYDGIGS", "modifications": "fluorescently labeled in the fibrillar collagen assay (dye not stated)", "notes": "source: E. coli Nico21 (DE3), purified"}, "B2": {"name": "ColG-PKD (I799-N880) (domain or fragment)", "chain": "IAKVTGPSTGAVGRNIEFSGKDSKDEDGKIVSYDWDFGDGATSRGKNSVHAYKKAGTYNVTLKVTDDKGATATESFTIEIKN", "notes": "as for B1"}, "B3": {"name": "ColG-CBD2 (N1004-K1118) (domain or fragment)", "chain": "NEKLKEKENNDSSDKATVIPNFNTTMQGSLLGDDSRDYYSFEVKEEGEVNIELDKKDEFGVTWTLHPESNINDRITYGQVDGNKVSNKVKLRPGKYYLLVYKYSGSGNYELRVNK", "modifications": "fluorescently labeled in the fibrillar collagen assay (dye not stated)", "notes": "as for B1"}}, "key": {"[1]": {"biological_target": "Type I gelatin (heat-denatured acid-soluble type I atelocollagen from bovine hides) (bovine)", "experiment": "ELISA"}, "[2]": {"biological_target": "V-(GXY)26 (Streptococcus pyogenes)", "experiment": "MST; NanoTemper Monolith NT.115, Protein Labeling Kit RED-NHS; 50 mM HEPES pH 7.5, 150 mM NaCl, 10 mM CaCl2, 10 µM ZnCl2, 0.05% Tween-20, 3 mM NaN3; without ß-mercaptoethanol (nonreducing) (Fig. 5F)"}, "[3]": {"biological_target": "V-(GXY)26 (Streptococcus pyogenes)", "experiment": "MST; NanoTemper Monolith NT.115, Protein Labeling Kit RED-NHS; 50 mM HEPES pH 7.5, 150 mM NaCl, 10 mM CaCl2, 10 µM ZnCl2, 0.05% Tween-20, 3 mM NaN3; with 1 mM ß-mercaptoethanol (reducing) (Fig. 5F)"}, "[4]": {"biological_target": "Acid-soluble type I atelocollagen from bovine hides (bovine) (UniProt P02453)", "sequence (P02453 162-1217, chain 1 of 2)": "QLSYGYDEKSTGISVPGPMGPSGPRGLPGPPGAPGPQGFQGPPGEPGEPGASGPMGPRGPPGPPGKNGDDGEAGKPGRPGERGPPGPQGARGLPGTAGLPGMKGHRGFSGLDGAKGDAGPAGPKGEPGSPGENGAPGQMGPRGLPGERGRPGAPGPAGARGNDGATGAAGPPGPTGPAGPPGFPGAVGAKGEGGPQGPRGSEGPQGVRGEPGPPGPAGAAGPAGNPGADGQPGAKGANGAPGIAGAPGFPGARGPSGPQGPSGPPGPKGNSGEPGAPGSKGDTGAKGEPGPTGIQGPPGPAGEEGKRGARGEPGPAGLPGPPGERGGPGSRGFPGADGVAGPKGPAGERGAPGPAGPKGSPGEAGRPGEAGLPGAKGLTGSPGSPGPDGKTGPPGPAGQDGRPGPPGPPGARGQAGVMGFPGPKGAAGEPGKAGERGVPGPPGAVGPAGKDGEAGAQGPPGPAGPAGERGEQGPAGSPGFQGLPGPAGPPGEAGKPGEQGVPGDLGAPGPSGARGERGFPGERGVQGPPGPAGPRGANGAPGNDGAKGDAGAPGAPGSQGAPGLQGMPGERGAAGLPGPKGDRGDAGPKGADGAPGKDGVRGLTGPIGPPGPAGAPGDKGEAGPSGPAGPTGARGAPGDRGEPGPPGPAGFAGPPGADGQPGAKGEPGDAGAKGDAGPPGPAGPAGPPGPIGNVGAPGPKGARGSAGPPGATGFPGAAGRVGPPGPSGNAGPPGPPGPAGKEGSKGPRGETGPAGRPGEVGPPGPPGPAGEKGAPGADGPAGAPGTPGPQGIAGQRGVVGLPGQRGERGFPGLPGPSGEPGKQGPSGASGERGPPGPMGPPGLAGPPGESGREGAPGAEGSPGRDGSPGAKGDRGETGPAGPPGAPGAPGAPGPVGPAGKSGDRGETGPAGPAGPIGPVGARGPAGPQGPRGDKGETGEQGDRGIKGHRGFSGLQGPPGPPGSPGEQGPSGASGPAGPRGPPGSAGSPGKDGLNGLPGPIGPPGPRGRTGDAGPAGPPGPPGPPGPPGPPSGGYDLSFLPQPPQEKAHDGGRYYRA", "sequence (P02465 80-1117, chain 2 of 2, further chain)": "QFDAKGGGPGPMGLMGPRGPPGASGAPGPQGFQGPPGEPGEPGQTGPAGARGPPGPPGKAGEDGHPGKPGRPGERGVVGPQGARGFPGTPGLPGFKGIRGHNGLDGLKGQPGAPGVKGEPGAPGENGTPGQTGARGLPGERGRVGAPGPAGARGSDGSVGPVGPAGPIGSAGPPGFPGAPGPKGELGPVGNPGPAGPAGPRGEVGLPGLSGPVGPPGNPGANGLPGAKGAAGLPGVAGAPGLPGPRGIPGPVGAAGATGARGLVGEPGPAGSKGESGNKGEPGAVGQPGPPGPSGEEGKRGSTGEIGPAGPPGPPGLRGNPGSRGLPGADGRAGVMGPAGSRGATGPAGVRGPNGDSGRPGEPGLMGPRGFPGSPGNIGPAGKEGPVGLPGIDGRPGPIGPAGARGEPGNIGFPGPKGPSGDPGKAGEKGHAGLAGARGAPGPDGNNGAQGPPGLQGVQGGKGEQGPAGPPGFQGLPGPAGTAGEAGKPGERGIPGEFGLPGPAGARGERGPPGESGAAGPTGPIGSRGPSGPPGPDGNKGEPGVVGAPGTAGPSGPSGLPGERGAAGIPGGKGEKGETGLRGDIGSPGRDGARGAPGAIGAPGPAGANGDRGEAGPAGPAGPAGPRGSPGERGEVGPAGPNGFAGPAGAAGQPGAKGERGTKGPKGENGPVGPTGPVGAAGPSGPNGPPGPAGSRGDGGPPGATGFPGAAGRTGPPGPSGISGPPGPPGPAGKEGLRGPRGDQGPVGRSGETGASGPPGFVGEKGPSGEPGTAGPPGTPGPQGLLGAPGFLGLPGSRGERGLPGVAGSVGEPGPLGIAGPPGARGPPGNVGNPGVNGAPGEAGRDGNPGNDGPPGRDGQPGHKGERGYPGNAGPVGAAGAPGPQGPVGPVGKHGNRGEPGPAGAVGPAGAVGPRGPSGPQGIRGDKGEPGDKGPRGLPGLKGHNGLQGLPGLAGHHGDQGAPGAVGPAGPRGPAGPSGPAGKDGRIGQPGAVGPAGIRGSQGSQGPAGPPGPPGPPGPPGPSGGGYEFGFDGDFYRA", "experiment": "ELISA"}, "[5]": {"biological_target": "type I gelatin (heat-denatured acid-soluble type I atelocollagen from bovine hides) (bovine) (UniProt P02453)", "sequence (P02453 23-1217, chain 1 of 2)": "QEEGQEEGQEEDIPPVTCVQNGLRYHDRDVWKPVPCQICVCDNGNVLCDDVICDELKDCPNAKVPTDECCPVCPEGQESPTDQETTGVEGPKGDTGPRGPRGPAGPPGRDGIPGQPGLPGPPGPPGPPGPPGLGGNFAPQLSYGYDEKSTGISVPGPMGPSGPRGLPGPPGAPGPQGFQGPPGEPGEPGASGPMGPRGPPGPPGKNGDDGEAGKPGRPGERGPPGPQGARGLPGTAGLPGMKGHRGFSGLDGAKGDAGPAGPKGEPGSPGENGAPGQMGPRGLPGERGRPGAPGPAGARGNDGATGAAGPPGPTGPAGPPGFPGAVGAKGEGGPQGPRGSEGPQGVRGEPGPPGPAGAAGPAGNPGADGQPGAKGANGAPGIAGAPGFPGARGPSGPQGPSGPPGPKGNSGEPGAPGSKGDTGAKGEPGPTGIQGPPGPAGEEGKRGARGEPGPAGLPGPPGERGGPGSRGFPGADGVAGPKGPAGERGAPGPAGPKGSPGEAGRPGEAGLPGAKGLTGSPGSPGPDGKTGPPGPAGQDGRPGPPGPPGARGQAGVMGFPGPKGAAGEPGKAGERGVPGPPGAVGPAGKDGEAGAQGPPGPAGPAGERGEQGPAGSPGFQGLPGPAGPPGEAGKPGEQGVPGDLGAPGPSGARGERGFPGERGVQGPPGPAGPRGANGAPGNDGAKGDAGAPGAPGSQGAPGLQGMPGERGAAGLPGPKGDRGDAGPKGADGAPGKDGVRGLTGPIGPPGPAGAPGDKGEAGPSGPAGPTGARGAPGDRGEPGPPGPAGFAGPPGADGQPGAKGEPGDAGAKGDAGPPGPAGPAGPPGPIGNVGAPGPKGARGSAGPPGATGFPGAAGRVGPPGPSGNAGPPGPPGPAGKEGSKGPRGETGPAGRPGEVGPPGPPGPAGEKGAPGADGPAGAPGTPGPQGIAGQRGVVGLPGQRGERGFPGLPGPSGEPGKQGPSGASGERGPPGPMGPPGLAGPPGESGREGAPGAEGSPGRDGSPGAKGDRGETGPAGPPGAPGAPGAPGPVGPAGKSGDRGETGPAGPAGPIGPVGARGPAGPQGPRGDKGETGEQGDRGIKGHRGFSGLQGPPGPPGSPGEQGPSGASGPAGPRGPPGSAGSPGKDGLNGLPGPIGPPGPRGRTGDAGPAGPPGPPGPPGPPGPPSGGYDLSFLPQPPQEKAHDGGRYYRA", "sequence (P02465 80-1117, chain 2 of 2, further chain)": "as the sequence (P02465 80-1117, chain 2 of 2, further chain) above", "experiment": "ELISA"}, "[6]": {"biological_target": "Acid-soluble type I atelocollagen from bovine hides (bovine) (UniProt P02453)", "experiment": "ELISA; indirect ELISA; soluble collagen immobilised, ColQ1-CU G472V variants in solution; 25 °C to preserve the triple-helical fold (Fig. 4C)"}, "[7]": {"biological_target": "Type I gelatin (heat-denatured acid-soluble type I atelocollagen from bovine hides) (bovine)", "experiment": "ELISA; indirect ELISA; gelatin immobilised, ColQ1-CU G472V variants in solution; 37 °C (Fig. 4B)"}, "[8]": {"biological_target": "Type I gelatin (heat-denatured acid-soluble type I atelocollagen from bovine hides)", "experiment": "indirect ELISA", "conditions": "37 °C; parent: est. 1.5 µM; read off a plot"}, "[9]": {"biological_target": "V-domain of Scl2.3 (Streptococcus pyogenes)", "experiment": "SDS-PAGE (SDS-stable oligomer); 12% nonreducing SDS-PAGE of 10 µM V-(GXY)26 incubated with or without ColG-CU at 25 °C (Fig. 2C)"}, "[10]": {"biological_target": "Acid-soluble type I atelocollagen from bovine hides (bovine, UniProt P02453 162-1217; P02465 80-1117)", "sequence (P02453 162-1217, chain 1 of 2)": "as the sequence (P02453 162-1217, chain 1 of 2) above", "sequence (P02465 80-1117, chain 2 of 2)": "as the sequence (P02465 80-1117, chain 2 of 2, further chain) above", "experiment": "ELISA", "conditions": "both partners purified"}, "[11]": {"biological_target": "T1, soluble type I collagen (acid-soluble type I atelocollagen from bovine hides) (bovine, UniProt P02453 162-1217; P02465 80-1117)", "T1 construct": "also called soluble collagen; tropocollagen", "T1 sequence (P02453 162-1217, chain 1 of 2)": "as the sequence (P02453 162-1217, chain 1 of 2) above", "T1 sequence (P02465 80-1117, chain 2 of 2)": "as the sequence (P02465 80-1117, chain 2 of 2, further chain) above", "experiment": "ELISA", "conditions": "both partners purified"}}}
{"molecule": "ColG-AD (Y119-S392) (from UniProt Q9X721 119-392) (domain or fragment)", "values": [{"measurement": "Kd", "setting": "[1]", "value": 0.11, "unit": "µM"}]}
{"molecule": "ColG-CBD2 (N1004-K1118) (from UniProt Q9X721 1004-1118) (domain or fragment)", "values": [{"measurement": "Kd", "setting": "[1]", "value": 253, "unit": "µM"}]}
{"molecule": "ColG-CU CL4-G494V, crosslinked (domain or fragment)", "values": [{"measurement": "Kd", "setting": "[2]", "value": 36, "unit": "µM"}]}
{"molecule": "ColG-CU CL4-G494V, noncrosslinked (reduced) (domain or fragment)", "values": [{"measurement": "Kd", "setting": "[3]", "value": 2.9, "unit": "µM"}]}
{"molecule": "ColG-CU E524A (Y119-G790) (domain or fragment)", "values": [{"measurement": "Kd", "setting": "[4]", "value": 0.37, "unit": "µM"}, {"measurement": "Kd", "setting": "[1]", "value": 0.08, "unit": "µM"}]}
{"molecule": "ColG-FL E524A (Y119-K1118) (from UniProt Q9X721 119-1118) (enzyme)", "values": [{"measurement": "Kd", "setting": "[4]", "value": 0.024, "unit": "µM"}, {"measurement": "Kd", "setting": "[1]", "value": 0.031, "unit": "µM"}]}
{"molecule": "ColG-PD E524A (D398-G790) (domain or fragment)", "values": [{"measurement": "Kd", "setting": "[4]", "value": 497, "unit": "µM"}, {"measurement": "Kd", "setting": "[1]", "value": 243, "unit": "µM"}]}
{"molecule": "ColG-PKD (I799-N880) (from UniProt Q9X721 799-880) (domain or fragment)", "values": [{"measurement": "Kd", "setting": "[5]", "value": "> 1000", "unit": "µM"}]}
{"molecule": "ColQ1-CU G472V (domain or fragment)", "values": [{"measurement": "Kd", "setting": "[6]", "value": 1.6, "unit": "µM"}, {"measurement": "Kd", "setting": "[7]", "value": 1.6, "unit": "µM"}]}
{"molecule": "ColQ1-CU G472V E166A", "values": [{"measurement": "Kd", "setting": "[8]", "value": 4.8, "unit": "µM"}]}
{"molecule": "ColQ1-CU G472V F123A", "values": [{"measurement": "Kd", "setting": "[8]", "value": 1.5, "unit": "µM"}]}
{"molecule": "ColQ1-CU G472V F176A", "values": [{"measurement": "Kd", "setting": "[8]", "value": 1.1, "unit": "µM"}]}
{"molecule": "ColQ1-CU G472V F176A (domain or fragment)", "values": [{"measurement": "fold increase in affinity against ColQ1-CU G472V", "setting": "[6]", "value": 20, "unit": "fold"}]}
{"molecule": "ColQ1-CU G472V N226A (domain or fragment)", "values": [{"measurement": "Kd", "setting": "[6]", "value": "> 150", "unit": "µM"}, {"measurement": "Kd", "setting": "[7]", "value": "> 150", "unit": "µM"}]}
{"molecule": "ColQ1-CU G472V R169A", "values": [{"measurement": "Kd", "setting": "[8]", "value": 2.7, "unit": "µM"}]}
{"molecule": "ColQ1-CU G472V R169A (domain or fragment)", "values": [{"measurement": "fold increase in affinity against ColQ1-CU G472V", "setting": "[6]", "value": 9, "unit": "fold"}]}
{"molecule": "ColQ1-CU G472V Y173A (domain or fragment)", "values": [{"measurement": "fold drop in binding affinity against ColQ1-CU G472V", "setting": "[7]", "value": 15, "unit": "fold"}]}
{"molecule": "ColQ1-CU G472V Y270A (domain or fragment)", "values": [{"measurement": "fold increase in affinity against ColQ1-CU G472V", "setting": "[6]", "value": 8, "unit": "fold"}]}
{"molecule": "V-domain of Scl2.3 (domain or fragment)", "values": [{"measurement": "stoichiometry N", "setting": "[9]", "value": 3}]}
{"molecule": "B1", "values": [{"measurement": "Kd", "setting": "[10]", "value": "0.072 ± 0.009", "unit": "µM"}]}
{"molecule": "B2", "values": [{"measurement": "Kd", "setting": "[11]", "value": "> 1000", "unit": "µM"}]}
{"molecule": "B3", "values": [{"measurement": "Kd", "setting": "[10]", "value": "14 ± 1", "unit": "µM"}]}
